From US20250092124A1

Columns and labels:
[1] = molecular target: GDF15-HIS (ACROBiosystems, CAT #: GD5-H5149) (human) (UniProt Q99988); assay: cell-based or functional assay
[2] = molecular target: GDF15-mFC protein (human; mouse) (UniProt Q99988); assay: competitive ELISA, GFRAL-HIS coated (competitor), GDF15-mFc 0.3 µg/ml pre-incubated with antibody
[3] = molecular target: GDF15-HIS (ACROBiosystems, CAT #: GD5-H5149) (human) (UniProt Q99988); assay: ELISA, GDF15-HIS coated
[4] = molecular target: GDF15-mFC protein (human; mouse) (UniProt Q99988); assay: blocking ELISA as in Example 4, GFRAL-hIgG1 Fc coated (competitor), GDF15-mFC mixed with antibody
[5] = molecular target: GDF15-HIS (ACROBiosystems, CAT #: GD5-H5149) (human) (UniProt Q99988); assay: BLI (ForteBio Octet), antibody immobilised, GDF15 200-6.25 nM
[6] = molecular target: GDF15-HIS (ACROBiosystems, CAT #: GD5-H5149) (human) (UniProt Q99988)

Chain of GDF15-HIS (ACROBiosystems, CAT #: GD5-H5149) (human) (Q99988 197-308 limits assumed): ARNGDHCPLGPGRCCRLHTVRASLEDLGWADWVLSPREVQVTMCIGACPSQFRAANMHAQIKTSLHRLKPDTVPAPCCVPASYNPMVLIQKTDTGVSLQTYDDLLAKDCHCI
Chain of GDF15-mFC protein (human; mouse) (Q99988 197-308): as the sequence (Q99988 197-308 limits assumed) above

B1: Ponsegromab (antibody, INN chains, looked up, V domains shown)
VH: QVQLVQSGAEVKKPGSSVKVSCKASGYTFSSYNIDWVRQAPGQGLEWMGGINPIFGTAFYNQKFQGRVTITADESTSTAYMELSSLRSEDTAVYYCAREAITTVGAMDHWGQGTLVTVSS
VL: EIVLTQSPATLSLSPGERATLSCRTSQSVHNYLAWYQQKPGQAPRLLIYDASTRADGIPARFSGSGSGTDFTLTISSLEPEDFAVYYCQQFWSWPWTFGQGTKVEIK
Q: With B1 as the binder, how does the Bottom (luciferase activity fold, fitted curve), HEK293 SRE-LUC2-cRET-GFRAL reporter cells [1] read?
A: Its Bottom (luciferase activity fold, fitted curve), HEK293 SRE-LUC2-cRET-GFRAL reporter cells is 1.07.

Q: What about the IC50, luciferase in HEK293 SRE-LUC2-cRET-GFRAL reporter cells stimulated with GDF15-His 5 ng/ml [1] of the same binder?
A: Its IC50, luciferase in HEK293 SRE-LUC2-cRET-GFRAL reporter cells stimulated with GDF15-His 5 ng/ml is 0.0321 µg/mL.

Q: And the IC50 [2]?
A: The IC50 was 0.504 µg/mL.

Q: What about the OD450.Max [2] of the same binder?
A: The OD450.Max was 1.02 OD450.

Q: What about the EC50 [3] of the same binder?
A: Its EC50 is 0.096 µg/mL.

Q: And the OD450.Max [3]?
A: The OD450.Max was 1.1 OD450.

Q: And the IC50 [4]?
A: The IC50 was 0.504 µg/mL.

Q: And the OD450.Max [4]?
A: Its OD450.Max is 1.02 OD450.

Q: And the Kd [5]?
A: Its Kd is < 1 pM.

Q: What about the koff [5] of the same binder?
A: The koff was < 1e-07 s⁻¹.

Q: What about the kon [5] of the same binder?
A: Its kon is 711000 M⁻¹ s⁻¹.

Q: And the EC50 (read off the curve) of GDF15-His for luciferase induction with 0.1 µg/ml antibody present [6]?
A: Its EC50 (read off the curve) of GDF15-His for luciferase induction with 0.1 µg/ml antibody present is 0.01 µg/mL.
